Results as given in article PMC7393112.

Substrate: C[C@@H](O)C(=O)O
Assay: purified protein
Conditions: DCIP as co-substrate, D-lactate 5-300 µM, pH of the kinetic assay not given (optimum pH 8.75)

B1: OsD-LDH2 (Oryza sativa Japonica Group) (protein)
chain: MARRAAAGLLRRHLGPLAAGETLQARGMYPKQYGAANHAFSRFYSIQGQQRSLYGFRTNVETDDTQQSARMNFEVQKRSFSSAAAHVQRNPAYSVLNSDDVSYFKSILGDSGVVQDEDRVSVANMDWMGKYKGSSQLLLLPKSTAEVSKILSYCNSRRLAVVPQGGNTGLVGGSVPVYDEVIISLGGMDKIITFDNVNGILTCEAGCVLENLSSYVENKGFIMPLDLGAKGSCHIGGNISTNAGGLRFIRYGSLHGSVLGLEVVLADGTVLDMLTTLRKDNTGYDLKHLFIGSEGSLGIVTKIAILTPAKLPSTNVAFLSCNDYISCQKLLLAARRSLGEILSAFEFMDRHCINLAMKYLEGVHNPLPVSPFNFYVLIETTGSDESYDKAKLEAFLLRSMEDGLVADGVIAQDISQASNFWRIREGISEASVKVGAVYKYDLSIPVEKLYDIVEEMRSRVGDMGQVLGYGHLGDGNLHLNILSTKYSDKMLAQIEPFVYEWTSKQRGSISAEHGLGLMKAEKIHYSKSSEAVQLMASIKKLLDPNSILNPYKVLPQSVL
- Km: 8.045 ± 1.7 µM
- kcat: 3.27 s⁻¹
- kcat/Km: 407000 M⁻¹ s⁻¹
